# Positions count from the first letter of the chain named.
# B1: SPK002M A5 antibody (antibody, human IgG1, kappa, V domains shown)
# VH: EVQLVESGGGLIQPGGSLRLSCAASVITVTSNYMSWVRQAPGKGLEWVSVIYPGGSTFYADSVKGRFTISADNSKNTLYLQMNSLRAEDTAVYYCARDLVVYGMDVWGQGTTVTVSS
# VL: EIVLTQSPGTLSLSPGERATLSCRASQSVSSSYLAWYQQKPGQAPRLLIYGASSRATGIPGRFSGSGSGTDFTLTISRLEPEDFAIYYCQQGVTFGGGTKVEIKR
# B2: SPK002M B2 antibody (antibody, human IgG1, kappa, V domains shown)
# VH: B1 VH with V26I, A71Y
# VL: B1 VL
# B3: SPK002M B1 antibody (antibody, human IgG1, kappa, V domains shown)
# VH: B1 VH with V26I, A71Y
# VL: B1 VL with S31D, Q91Y
# B4: SPK002M C3 antibody (antibody, human IgG1, kappa, V domains shown)
# VH: B1 VH with V26I, A71T
# VL: B1 VL with I86V
# B5: SPK002M C2 antibody (antibody, human IgG1, kappa, V domains shown)
# VH: B1 VH with V26I, I51A, A71T
# VL: B1 VL with I86V
# B6: SPK002M C1 antibody (antibody, human IgG1, kappa, V domains shown)
# VH: B1 VH with V26I, I51A, A71T
# VL: B1 VL with S31D, I86V, Q91Y
# Key:
# [1] = target: T1, recombinant SARS-CoV-2 Spike RBD domain, Delta variant (SARS-CoV-2); assay: ELISA on coated RBD
# T1 construct: also called RBD Delta variant
# [2] = target: T2, recombinant SARS-CoV-2 Spike RBD domain, BA.2 variant (SARS-CoV-2); assay: ELISA on coated RBD
# T2 construct: also called RBD BA.2. variant
# [3] = target: T3, recombinant SARS-CoV-2 Spike RBD domain, BA.2.75.2 variant (SARS-CoV-2); assay: ELISA on coated RBD
# T3 construct: also called RBD BA.2.75.2 variant
# [4] = target: T4, recombinant SARS-CoV-2 Spike RBD domain, BA.4/5 variant (SARS-CoV-2); assay: ELISA on coated RBD
# T4 construct: also called RBD BA.4/5 variant
# [5] = target: T5, recombinant SARS-CoV-2 Spike RBD domain, BQ.1.1 variant (SARS-CoV-2); assay: ELISA on coated RBD
# T5 construct: also called RBD BQ.1.1. variant
# [6] = target: T6, recombinant SARS-CoV-2 Spike RBD domain, XBB.1.5 variant (SARS-CoV-2); assay: ELISA on coated RBD
# T6 construct: also called RBD XBB.1.5 variant
# [7] = target: T7, recombinant SARS-CoV-2 Spike RBD domain, XBB.1.16 variant (SARS-CoV-2); assay: ELISA on coated RBD
# T7 construct: also called RBD XBB.1.16 variant
# [8] = target: T8, recombinant SARS-CoV-2 Spike RBD domain, EG.5 variant (SARS-CoV-2); assay: ELISA on coated RBD
# T8 construct: also called RBD EG.5.1 variant
# [9] = target: T9, recombinant SARS-CoV-2 Spike RBD domain, BA.2.86 variant (SARS-CoV-2); assay: ELISA on coated RBD
# T9 construct: also called RBD BA.2.86 variant
# [10] = target: T10, recombinant SARS-CoV-2 Spike RBD domain, JN-1 variant (SARS-CoV-2); assay: ELISA on coated RBD
# T10 construct: also called RBD JN-1 variant
# [11] = target: Spike protein of SARS-CoV-2 strain D614G (hCoV-19/France/GE1973/2020) (SARS-CoV-2, UniProt P0DTC2 14-1273); assay: cell-based or functional assay
# [12] = target: Spike protein of SARS-CoV-2 strain XBB.1.5 (GISAID EPI_ISL_16353849) (SARS-CoV-2); assay: cell-based or functional assay
# [13] = target: Spike protein of SARS-CoV-2 strain XBB.1.16 (hCoV-19/France/GES-IPP7712/2023) (SARS-CoV-2); assay: cell-based or functional assay
# [14] = target: Spike protein of SARS-CoV-2 strain BA.2.86 (hCoV-19/France/IDF-IPP17625/2023) (SARS-CoV-2); assay: cell-based or functional assay
# [15] = target: Spike protein of SARS-CoV-2 strain EG.5.1 (hCoV-19/France/GES-IPP15954/2023) (SARS-CoV-2); assay: cell-based or functional assay
# [16] = target: Spike protein of SARS-CoV-2 strain JN.1 (hCoV-19/France/HDF-IPP21391/2023) (SARS-CoV-2); assay: cell-based or functional assay
# [17] = target: T1, recombinant SARS-CoV-2 Spike RBD …; assay: competition ELISA, blocking of RBD binding to ACE2 ectodomain
# [18] = target: T2, recombinant SARS-CoV-2 Spike RBD …; assay: as above
# [19] = target: T3, recombinant SARS-CoV-2 Spike RBD …; assay: as above
# [20] = target: T4, recombinant SARS-CoV-2 Spike RBD …; assay: as above
# [21] = target: T5, recombinant SARS-CoV-2 Spike RBD …; assay: as above
# [22] = target: T6, recombinant SARS-CoV-2 Spike RBD …; assay: as above
# [23] = target: T7, recombinant SARS-CoV-2 Spike RBD …; assay: as above
# [24] = target: T8, recombinant SARS-CoV-2 Spike RBD …; assay: as above
# [25] = target: T9, recombinant SARS-CoV-2 Spike RBD …; assay: as above
# [26] = target: T10, recombinant SARS-CoV-2 Spike RBD …; assay: as above
binder,measurement,setting,value
B1,Binding AUC,[1],33
same,Binding AUC,[2],27
same,Binding AUC,[3],34
same,Binding AUC,[4],32
same,Binding AUC,[5],30
same,Binding AUC,[6],35
same,Binding AUC,[7],31
same,Binding AUC,[8],35
same,Binding AUC,[9],38
same,Binding AUC,[10],32
same,"IC50, S-Fuse neutralization of live virus",[11],0.09 µg/mL
same,"IC50, S-Fuse neutralization of live virus",[12],0.12 µg/mL
same,"IC50, S-Fuse neutralization of live virus",[13],0.36 µg/mL
same,"IC50, S-Fuse neutralization of live virus",[14],0.08 µg/mL
same,"IC50, S-Fuse neutralization of live virus",[15],2.86 µg/mL
same,"IC50, S-Fuse neutralization of live virus",[16],50.9 µg/mL
same,Blocking %,[17],93%
same,Blocking %,[18],93%
same,Blocking %,[19],95%
same,Blocking %,[20],96%
same,Blocking %,[21],96%
same,Blocking %,[22],95%
same,Blocking %,[23],95%
same,Blocking %,[24],83%
same,Blocking %,[25],84%
same,Blocking %,[26],2%
B2,Binding AUC,[1],32
same,Binding AUC,[2],26
same,Binding AUC,[3],29
same,Binding AUC,[4],30
same,Binding AUC,[5],31
same,Binding AUC,[6],32
same,Binding AUC,[7],30
same,Binding AUC,[8],32
same,Binding AUC,[9],39
same,Binding AUC,[10],28
same,"IC50, S-Fuse neutralization of live virus",[11],0.09 µg/mL
same,"IC50, S-Fuse neutralization of live virus",[12],0.14 µg/mL
same,"IC50, S-Fuse neutralization of live virus",[13],0.32 µg/mL
same,"IC50, S-Fuse neutralization of live virus",[14],0.19 µg/mL
same,"IC50, S-Fuse neutralization of live virus",[15],5.53 µg/mL
same,"IC50, S-Fuse neutralization of live virus",[16],85.8 µg/mL
same,Blocking %,[17],88%
same,Blocking %,[18],92%
same,Blocking %,[19],91%
same,Blocking %,[20],91%
same,Blocking %,[21],95%
same,Blocking %,[22],92%
same,Blocking %,[23],92%
same,Blocking %,[24],70%
same,Blocking %,[25],86%
same,Blocking %,[26],0%
B3,Binding AUC,[1],33
same,Binding AUC,[2],29
same,Binding AUC,[3],30
same,Binding AUC,[4],31
same,Binding AUC,[5],31
same,Binding AUC,[6],31
same,Binding AUC,[7],30
same,Binding AUC,[8],33
same,Binding AUC,[9],39
same,Binding AUC,[10],38
same,"IC50, S-Fuse neutralization of live virus",[11],0.11 µg/mL
same,"IC50, S-Fuse neutralization of live virus",[12],0.07 µg/mL
same,"IC50, S-Fuse neutralization of live virus",[13],0.18 µg/mL
same,"IC50, S-Fuse neutralization of live virus",[14],0.03 µg/mL
same,"IC50, S-Fuse neutralization of live virus",[15],0.19 µg/mL
same,"IC50, S-Fuse neutralization of live virus",[16],4.1 µg/mL
same,Blocking %,[17],91%
same,Blocking %,[18],95%
same,Blocking %,[19],91%
same,Blocking %,[20],95%
same,Blocking %,[21],97%
same,Blocking %,[22],97%
same,Blocking %,[23],97%
same,Blocking %,[24],95%
same,Blocking %,[25],94%
same,Blocking %,[26],66%
B4,Binding AUC,[1],33
same,Binding AUC,[2],19
same,Binding AUC,[3],29
same,Binding AUC,[4],32
same,Binding AUC,[5],31
same,Binding AUC,[6],32
same,Binding AUC,[7],31
same,Binding AUC,[8],33
same,Binding AUC,[9],38
same,Binding AUC,[10],29
same,"IC50, S-Fuse neutralization of live virus",[11],0.08 µg/mL
same,"IC50, S-Fuse neutralization of live virus",[12],0.13 µg/mL
same,"IC50, S-Fuse neutralization of live virus",[13],0.3 µg/mL
same,"IC50, S-Fuse neutralization of live virus",[14],0.33 µg/mL
same,"IC50, S-Fuse neutralization of live virus",[15],6.08 µg/mL
same,"IC50, S-Fuse neutralization of live virus",[16],60.1 µg/mL
same,Blocking %,[17],95%
same,Blocking %,[18],94%
same,Blocking %,[19],94%
same,Blocking %,[20],94%
same,Blocking %,[21],94%
same,Blocking %,[22],90%
same,Blocking %,[23],90%
same,Blocking %,[24],81%
same,Blocking %,[25],90%
same,Blocking %,[26],0%
B5,Binding AUC,[1],32
same,Binding AUC,[2],23
same,Binding AUC,[3],28
same,Binding AUC,[4],30
same,Binding AUC,[5],31
same,Binding AUC,[6],31
same,Binding AUC,[7],29
same,Binding AUC,[8],32
same,Binding AUC,[9],38
same,Binding AUC,[10],33
same,"IC50, S-Fuse neutralization of live virus",[11],0.06 µg/mL
same,"IC50, S-Fuse neutralization of live virus",[12],0.14 µg/mL
same,"IC50, S-Fuse neutralization of live virus",[13],0.21 µg/mL
same,"IC50, S-Fuse neutralization of live virus",[14],0.05 µg/mL
same,"IC50, S-Fuse neutralization of live virus",[15],2.16 µg/mL
same,"IC50, S-Fuse neutralization of live virus",[16],53.8 µg/mL
same,Blocking %,[17],90%
same,Blocking %,[18],93%
same,Blocking %,[19],92%
same,Blocking %,[20],93%
same,Blocking %,[21],95%
same,Blocking %,[22],93%
same,Blocking %,[23],93%
same,Blocking %,[24],89%
same,Blocking %,[25],91%
same,Blocking %,[26],28%
B6,Binding AUC,[1],32
same,Binding AUC,[2],28
same,Binding AUC,[3],28
same,Binding AUC,[4],30
same,Binding AUC,[5],31
same,Binding AUC,[6],31
same,Binding AUC,[7],29
same,Binding AUC,[8],32
same,Binding AUC,[9],38
same,Binding AUC,[10],39
same,"IC50, S-Fuse neutralization of live virus",[11],0.08 µg/mL
same,"IC50, S-Fuse neutralization of live virus",[12],0.07 µg/mL
same,"IC50, S-Fuse neutralization of live virus",[13],0.12 µg/mL
same,"IC50, S-Fuse neutralization of live virus",[14],0.03 µg/mL
same,"IC50, S-Fuse neutralization of live virus",[15],0.16 µg/mL
same,"IC50, S-Fuse neutralization of live virus",[16],1.73 µg/mL
same,Blocking %,[17],94%
same,Blocking %,[18],95%
same,Blocking %,[19],95%
same,Blocking %,[20],97%
same,Blocking %,[21],97%
same,Blocking %,[22],96%
same,Blocking %,[23],96%
same,Blocking %,[24],96%
same,Blocking %,[25],96%
same,Blocking %,[26],83%

# Reference: patent US12281155 (INSTITUT PASTEUR, dated 2025)
